Data on two substances can be found in PMC4360655.

One data set relates to P15381. As to the kind of experiment: FRET or BRET; living tsA-201 cells expressing CaV1.2-EGFP (donor) and CaV1.2-tagRFP (acceptor), confocal; FRETr = RFPg/GFPg; followed during flash photolysis of caged Ca2+ at −80 mV, during a 500-ms depolarization from −80 to +10 mV (10 mM EGTA in the pipette), and at 0-5000 nM Ca2+ with 1 μM …. (Bioluminescence resonance energy transfer reports proximity on the nanometre scale.)

Data set [1] addresses CaV1.2 channel pore-forming subunit (α1c) tagged at its C-terminus with a half of split Venus (CaV1.2-VN155(I152L) and CaV1.2-VC155) (rabbit) (UniProt P15381).

“CaV1.2 channel pore-forming subunit (α1c) tagged at its C-terminus with EGFP or tagRFP (CaV1.2-EGFP and CaV1.2-tagRFP)”: in the data set with P15381, the “time for FRETr to decay to 50% of the peak (T50%), with m5” value worked out at 0.63 ± 0.23 s for FRETr.

In turn, “CaV1.2 channel pore-forming subunit (α1c) tagged at its C-terminus with a half of split Venus (CaV1.2-VN155(I152L) and CaV1.2-VC155) (from UniProt P15381 1-2171) (natural protein)” registered a CaV1.2 sparklet density after against before the depolarization that fuses CaV1.2-VN and CaV1.2-VC in data set [1] of 10 fold.
